Where a chain is given by its changes, count along the chain named. Each block holds one binder with its values, some of them ahead of it.
Legend:
[1] = molecular target: T1, recombinant cynomolgus monkey CD38-ECD-C-his (cynomolgus monkey, UniProt Q5VAN0 45-301); assay: SPR, His-captured cyno CD38, Fab analyte, 1:1 fit
T1 construct: Extracellular region fused to 6-His; also called cyno CD38-C-His; recombinant cynomolgus monkey CD38 protein
Protocol: (§1) Surface plasmon resonance (SPR) was used to measure the binding affinities of the Fab fragments for human and cynomolgus monkey CD38. Affinities were measured on a Biacore T200 instrument (Biacore, GE Healthcare) at 25° C. and analyzed with the Biacore T200 Evaluation Software (v3.1).
(§2) The affinities to human and cynomolgus monkey CD38 were assessed by immobilizing CD38 and using Fab fragments as analyte. Biotinylated recombinant human CD38 protein was immobilized to around 160 RU on flow-path 2 of a Series S Sensor Chip SA or to around 100 RU on flow-path 2 of a Series S BiotinCAPture Chip and recombinant cynomolgus monkey CD38-his protein was immobilized to around 50-100 RU on flow-path 2 of a Series S CM5 Sensor Chip previously coated with anti-histidin antibody. Fab fragments were injected in single cycle kinetic at different concentrations ranging from 7.8 to 2000 nM, in HBS-EP+ buffer (Biacore, GE Healthcare, catalog NO: BR100669) at a flow rate of 30 μl/min for 3 min on flow-path 1 and 2 (flow-path 1 being used as reference). Dissociation was monitored for 5 min.

[2] = molecular target: T2, recombinant biotinylated human CD38 Avitag, His Tag (Acrobiosystems, CD8-H82E7) (human, UniProt P28907 43-300, biotinylated (Avitag)); assay: SPR, biotinylated CD38 captured, Fab analyte, 1:1 fit;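 note: biacore T200 at 25 °C, single-cycle kinetics with Fab injected at 7.8–2000 nM for 3 min, dissociation followed 5 min, reference flow path subtracted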
T2 construct: Bought protein; also called biotinylated human CD38-avi-his protein; biotinylated recombinant human CD38 protein
Protocol: as §1, §2

[3] = molecular target: T3, recombinant human CD38-ECD-C-his (human, UniProt P28907 43-300); assay: SPR, Fab captured as ligand, CD38 analyte
T3 construct: Extracellular region fused to 6-His, made in house; also called human CD38-C-His; recombinant human CD38 protein
Protocol: Affinities of the Fab to human and cynomolgus CD38 using the Fab as ligand were measured on a Biacore T200 instrument (Biacore, GE Healthcare) at 25° C. and analyzed with the BiacoreT200 Evaluation Software (v3.1). […] The affinities to human and cynomolgus monkey CD38 were assessed by immobilizing Fab fragments and using human or cynomolgus monkey CD38 protein as analyte. Around 50-200 RU of Fab was captured on flow-path 2 of a Series S CM5 Sensor Chip coupled with anti-human Fab antibodies. Human or cynomolgus monkey CD38 was injected in multi cycle kinetic at different concentrations ranging from 0.2 to 100 nM, in HBS-EP+ buffer (Biacore, GE Healthcare, catalog NO: BR100669) at a flow rate of 30 μl/min for 5 min on flow-path 1 and 2 (flow-path 1 being used as reference). Dissociation was monitored for 10 min. […] Experimental data were processed using the 1:1 Langmuir kinetic fitting model. Measurements included zero-concentration samples for referencing. Chi², U- and residual values were used to evaluate the quality of a fit between the experimental data and individual binding models.

[4] = molecular target: T2, recombinant biotinylated human CD38 …; assay: SPR, biotinylated CD38 captured, Fab as analyte
[5] = molecular target: T1, recombinant cynomolgus monkey …; assay: SPR, His-captured cyno CD38, Fab as analyte

B1: Anti-CD38-UCP03-H3 Fab (Fab, V domains shown)
VH: QVQLVQSGAEVKKPGSSVKVSCKASGGVFSQFPISWVRQAPGQGLEWMGGIIAGYGATEYAQKFQGRVTITADESTSTAYMELSSLRSEDTAVYYCARVYGGIDWGQGTLVTVSS
VL: not shown
notes: human IgG1 Fab
Kd [1]: 178 nM
Kd [2]: 810 nM

B2: Anti-CD38-UCP01-F1 Fab (Fab, V domains shown)
VH: QVQLVQSGAEVKKPGSSVKVSCKASGGVFSLYTITWVRQAPGQGLEWMGSIIPLLGDPEYAQKFQGRVTITADESTSTAYMELSSLRSEDTAVYYCARYPYPYGSKYFDIWGQGTLVTVSS
VL: not shown
notes: human IgG1 Fab
Kd [1]: 393 nM
Kd [2]: 429 nM

B3: Anti-CD38-UCP02-B1 Fab (Fab, V domains shown)
VH: QVQLVQSGAEVKKPGSSVKVSCKASGGQFSFYAINWVRQAPGQGLEWMGEIIPDYGVTHYAQKFQGRVTITADESTSTAYMELSSLRSEDTAVYYCARWSYTYGIRYYYKLFDPWGQGTLVTVSS
VL: not shown
notes: human IgG1 Fab
Kd [2]: 595 nM

B4: Anti-CD38-UCP03-B6 Fab (Fab, V domains shown)
VH: QVQLVQSGAEVKKPGSSVKVSCKASGGHISNSAINWVRQAPGQGLEWMGRVIPVIDDAYYAQKFQGRVTITADESTSTAYMELSSLRSEDTAVYYCARSRGYYGSFYFDIWGQGTLVTVSS
VL: not shown
notes: human IgG1 Fab; also called anti-CD38-B6; anti-CD38-B6 Fab
Kd [1]: 829 nM
Kd [2]: 225 nM

B5: anti-CD38-B6-MP01-C2 FAB (Fab, V domains shown)
VH: B4 VH with H28A, I29F, N31D, S32Y, A33V, N35S
VL: not shown
notes: human IgG1 Fab
Kd [3]: 345 nM
Kd [4]: 209 nM

B7: Anti-CD38-UCP03-H2 Fab (Fab, V domains shown)
VH: QVQLVQSGAEVKKPGSSVKVSCKASGGEFSIYVISWVRQAPGQGLEWMGRVIPSTGDTNYAQKFQGRVTITADESTSTAYMELSSLRSEDTAVYYCARGKAYYSGWLAIWGQGTLVTVSS
VL: not shown
notes: human IgG1 Fab
Kd [1]: 672 nM
Kd [2]: 1850 nM

B8: Anti-CD38-UCP03-C3 Fab (Fab, V domains shown)
VH: QVQLVQSGAEVKKPGSSVKVSCKASGGKFSNYAISWVRQAPGQGLEWMGRIIPQIGDAAYAQKFQGRVTITADESTSTAYMELSSLRSEDTAVYYCARASFLYYSYYFDYWGQGTLVTVSS
VL: not shown
notes: human IgG1 Fab
Kd [1]: 465 nM
Kd [2]: 117 nM

B9: Anti-CD38-UCP03-C2 Fab (Fab, V domains shown)
VH: B8 VH with K28T, R50G, Q54A, I55F, A59G, A99G, S100R, F101V
VL: not shown
notes: human IgG1 Fab
Kd [1]: 628 nM
Kd [2]: 1390 nM

B15: Anti-CD38-UCP01-G1 Fab (Fab, V domains shown)
VH: QVQLVQSGAEVKKPGSSVKVSCKASGGGFSKYFITWVRQAPGQGLEWMGGVIPKIGYTSYAQKFQGRVTITADESTSTAYMELSSLRSEDTAVYYCARGSDDYASYSPLDSWGQGTLVTVSS
VL: not shown
notes: human IgG1 Fab
Kd [1]: 283 nM
Kd [2]: 1120 nM

B16: Anti-CD38-UCP03-B1 Fab (Fab, V domains shown)
VH: B15 VH
VL: not shown
notes: human IgG1 Fab
Kd [1]: 462 nM
Kd [2]: 882 nM

B20: Anti-CD38-UCP01-H1 Fab (Fab, V domains shown)
VH: QVQLVQSGAEVKKPGSSVKVSCKASGDFFSGYAINWVRQAPGQGLEWMGRIIPLLGDTYYAQKFQGRVTITADESTSTAYMELSSLRSEDTAVYYCARSAAGWFAYWGQGTLVTVSS
VL: not shown
notes: human IgG1 Fab
Kd [1]: 352 nM
Kd [2]: 437 nM

B23: Anti-CD38-UCP01-E2 Fab (Fab, V domains shown)
VH: QVQLVQSGAEVKKPGSSVKVSCKASGGSFSNYAIGWVRQAPGQGLEWMGRIIPVFGSAHYAQKFQGRVTITADESTSTAYMELSSLRSEDTAVYYCARGLGYYLYSSYYFDIWGQGTLVTVSS
VL: not shown
notes: human IgG1 Fab; also called anti-CD38-E2; anti-CD38-E2 Fab
Kd [1]: 88.9 nM
Kd [2]: 110 nM

B24: anti-CD38-E2-UCP02-A5 FAB (Fab, V domains shown)
VH: B23 VH with V54D, F55L, S57A
VL: not shown
notes: human IgG1 Fab
Kd [3]: 35 nM
Kd [4]: 23.6 nM
Kd [5]: 4.4 nM

B25: anti-CD38-E2-UCP01-A10 FAB (Fab, V domains shown)
VH: B23 VH with G27L, S28P, F29D, S30A, N31T
VL: not shown
notes: human IgG1 Fab
Kd [3]: 16.9 nM
Kd [4]: 9.4 nM
Kd [5]: 8.6 nM

B30: Anti-CD38-UCP02-B7 Fab (Fab, V domains shown)
VH: EVQLVESGGGLVKPGGSLRLSCAASGFSFNEAWMTWVRQAPGKGLEWVGRIKSYSDGGYTGYAAPVKGRFTISRDDSKNTLYLQMNSLKTEDTAVYYCARSPGIPYHYFDVWGQGTLVTVSS
VL: not shown
notes: human IgG1 Fab
Kd [2]: 1710 nM

Results, then the binder that gave them:

Kd [2]: 389 nM
B6: Anti-CD38-UCP02-F6 Fab (Fab, V domains shown)
VH: EVQLLESGGGLVQPGGSLRLSCAASGFTFSFYDMSWVRQAPGKGLEWVSAVSLYGDETYYADSVKGRFTISRDNSKNTLYLQMNSLRAEDTAVYYCAREPVSYDYYGSYFDYWGQGTLVTVSS
VL: not shown
notes: human IgG1 Fab

Kd [1]: 188 nM
Kd [2]: 305 nM
B10: Anti-CD38-UCP02-C3 Fab (Fab, V domains shown)
VH: QVQLVQSGAEVKKPGSSVKVSCKASGDYFNNYAINWVRQAPGQGLEWMGRIIPFLDDANYAQKFQGRVTITADESTSTAYMELSSLRSEDTAVYYCARATSPLYSYYFDYWGQGTLVTVSS
VL: not shown
notes: human IgG1 Fab

Kd [1]: 2.7 nM
Kd [2]: 154 nM
B11: Anti-CD38-UCP02-H1 Fab (Fab, V domains shown)
VH: QVQLVQSGAEVKKPGSSVKVSCKASGDKFNTYAISWVRQAPGQGLEWMGGITPRYDYAHYAQKFQGRVTITADESTSTAYMELSSLRSEDTAVYYCARSWGFRAGYLDYWGQGTLVTVSS
VL: not shown
notes: human IgG1 Fab

Kd [1]: 14 nM
Kd [2]: 14.2 nM
B12: Anti-CD38-UCP02-F2 Fab (Fab, V domains shown)
VH: QVQLVQSGAEVKKPGSSVKVSCKASGDVFSLLAIGWVRQAPGQGLEWMGRIIPSLDATHYAQKFQGRVTITADESTSTAYMELSSLRSEDTAVYYCARGRDVLRSYYFDIWGQGTLVTVSS
VL: not shown
notes: human IgG1 Fab

Kd [1]: 55.2 nM
Kd [2]: 71.1 nM
B13: Anti-CD38-UCP02-F5 Fab (Fab, V domains shown)
VH: QVQLVQSGAEVKKPGSSVKVSCKASGGVFSYYTISWVRQAPGQGLEWMGRIIPSLGATHYAQKFQGRVTITADESTSTAYMELSSLRSEDTAVYYCARSDSFYYAYYMDLWGQGTLVTVSS
VL: not shown
notes: human IgG1 Fab

Kd [2]: 0.03 nM
B14: Anti-CD38-UCP02-E5 Fab (Fab, V domains shown)
VH: QVQLVQSGAEVKKPGSSVKVSCKASGGGFRHYFISWVRQAPGQGLEWMGGIIPAAATPYYAQKFQGRVTITADESTSTAYMELSSLRSEDTAVYYCARGYWHWFDYWGQGTLVTVSS
VL: not shown
notes: human IgG1 Fab

Kd [1]: 33.5 nM
Kd [2]: 192 nM
B17: Anti-CD38-UCP02-D5 Fab (Fab, V domains shown)
VH: QVQLVQSGAEVKKPGSSVKVSCKASGGIFSVHAIHWVRQAPGQGLEWMGEIIPVIGEADYAQKFQGRVTITADESTSTAYMELSSLRSEDTAVYYCAREQYYYALGGGFDYWGQGTLVTVSS
VL: not shown
notes: human IgG1 Fab

Kd [1]: 111 nM
Kd [2]: 142 nM
B18: Anti-CD38-UCP03-H5 Fab (Fab, V domains shown)
VH: QVQLVQSGAEVKKPGSSVKVSCKASGGLFSFYAISWVRQAPGQGLEWMGGIIPFFGEPQYAQKFQGRVTITADESTSTAYMELSSLRSEDTAVYYCARGSYRFDVWGQGTLVTVSA
VL: not shown
notes: human IgG1 Fab

Kd [1]: 525 nM
Kd [2]: 410 nM
B19: Anti-CD38-UCP03-A6 Fab (Fab, V domains shown)
VH: QVQLVQSGAEVKKPGSSVKVSCKASGGDFSLYAISWVRQAPGQGLEWMGGIIPLLGEPVYAQKFQGRVTITADESTSTAYMELSSLRSEDTAVYYCARGHRVYSSSPFDYWGQGTLVTVSS
VL: not shown
notes: human IgG1 Fab

Kd [1]: 53.5 nM
Kd [2]: 85.3 nM
B21: Anti-CD38-UCP01-C2 Fab (Fab, V domains shown)
VH: QVQLVQSGAEVKKPGSSVKVSCKASGGYLGIYAISWVRQAPGQGLEWMGRIIPILGEADYAQKFQGRVTITADESTSTAYMELSSLRSEDTAVYYCARGGVWWDYWGQGTLVTVSS
VL: not shown
notes: human IgG1 Fab

Kd [2]: 71.1 nM
B22: Anti-CD38-UCP02-A7 Fab (Fab, V domains shown)
VH: EVQLLESGGGLVQPGGSLRLSCAASGFTFSFYDMSWVRQAPGKGLEWVSTITLHGGDTYYADSVKGRFTISRDNSKNTLYLQMNSLRAEDTAVYYCARDPSYIYSTSGYFDYWGQGTLVTVSS
VL: not shown
notes: human IgG1 Fab

Kd [1]: 195 nM
Kd [2]: 300 nM
B26: Anti-CD38-UCP03-E3 Fab (Fab, V domains shown)
VH: QVQLVQSGAEVKKPGSSVKVSCKASGGSFSIYAISWVRQAPGQGLEWMGGIIPNSGDTDYAQKFQGRVTITADESTSTAYMELSSLRSEDTAVYYCARGPYDSYGESYFDYWGQGTLVTVSS
VL: not shown
notes: human IgG1 Fab

Kd [1]: 170 nM
Kd [2]: 115 nM
B27: Anti-CD38-UCP03-B3 Fab (Fab, V domains shown)
VH: QVQLVQSGAEVKKPGSSVKVSCKASGGDFTLYSISWVRQAPGQGLEWMGRIIPTGANANYAQKFQGRVTITADESTSTAYMELSSLRSEDTAVYYCARSWPSLGSGWFDIWGQGTLVTVSS
VL: not shown
notes: human IgG1 Fab

Kd [1]: 102 nM
Kd [2]: 193 nM
B28: Anti-CD38-UCP01-B1 Fab (Fab, V domains shown)
VH: QVQLVQSGAEVKKPGSSVKVSCKASGGDFDQYYISWVRQAPGQGLEWMGRIIPTLGDSQYAQKFQGRVTITADESTSTAYMELSSLRSEDTAVYYCARAVIVSPYYYIYVFDVWGQGTLVTVSS
VL: not shown
notes: human IgG1 Fab

Kd [1]: 78 nM
Kd [2]: 133 nM
B29: Anti-CD38-UCP02-D1 Fab (Fab, V domains shown)
VH: B28 VH
VL: not shown
notes: human IgG1 Fab
